Data on one molecule can be found in patent publication US20220213203A1 (MacroGenics, published 2022).

The target in experiment [1] is CD123 as arrayed by human cells (human, UniProt P26951 19-378). Put plainly: cell-based or functional assay.
In experiment [2] the target is Cynomolgus CD3ε/δ (cynomolgus monkey) (UniProt Q95LI5). Put plainly: kinetic binding analysis; method not given.
The target of the next experiment is Human CD3ε/δ (human) (UniProt P07766). As to the kind of experiment: kinetic binding analysis; method not given.
Sequence of Human CD3ε/δ (human) (P07766 23-126, stated change not applied, chain 1 of 2): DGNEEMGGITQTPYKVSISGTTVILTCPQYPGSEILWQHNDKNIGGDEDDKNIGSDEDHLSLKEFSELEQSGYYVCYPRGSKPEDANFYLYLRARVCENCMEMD
Sequence of Human CD3ε/δ (human) (P04234 22-105, stated change not applied, chain 2 of 2, further chain): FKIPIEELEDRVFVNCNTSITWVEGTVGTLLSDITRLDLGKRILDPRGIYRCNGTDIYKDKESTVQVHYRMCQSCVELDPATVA

Sequence of Cynomolgus CD3ε/δ (cynomolgus monkey) (Q95LI5 22-117, stated change not applied, chain 1 of 2): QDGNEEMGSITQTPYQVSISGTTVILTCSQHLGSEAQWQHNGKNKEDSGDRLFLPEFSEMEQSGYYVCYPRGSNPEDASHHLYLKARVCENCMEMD
Sequence of Cynomolgus CD3ε/δ (cynomolgus monkey) (Q95LI8 22-105, stated change not applied, chain 2 of 2, further chain): as the sequence (P04234 22-105, stated change not applied, chain 2 of 2, further chain) above, with I5V, N15K, I20V, S32T, D33N, I34N, T64A, S74N, V83L counted along it
Sequence of CD123 as arrayed by human cells (P26951 19-378): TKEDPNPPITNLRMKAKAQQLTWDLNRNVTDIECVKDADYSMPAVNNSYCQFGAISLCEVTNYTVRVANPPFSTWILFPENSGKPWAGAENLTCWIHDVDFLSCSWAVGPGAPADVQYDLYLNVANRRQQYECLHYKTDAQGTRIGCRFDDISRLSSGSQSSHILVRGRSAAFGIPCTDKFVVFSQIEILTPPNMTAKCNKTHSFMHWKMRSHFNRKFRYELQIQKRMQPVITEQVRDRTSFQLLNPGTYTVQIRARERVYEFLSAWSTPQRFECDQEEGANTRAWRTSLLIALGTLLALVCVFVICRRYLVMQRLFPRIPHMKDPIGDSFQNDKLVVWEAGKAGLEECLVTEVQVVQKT

B1: DART-A (bispecific antibody)
chain 1: QAVVTQEPSLTVSPGGTVTLTCRSSTGAVTTSNYANWVQQKPGQAPRGLIGGTNKRAPWTPARFSGSLLGGKAALTITGAQAEDEADYYCALWYSNLWVFGGGTKLTVLGGGGSGGGGEVQLVQSGAELKKPGASVKVSCKASGYTFTDYYMKWVRQAPGQGLEWIGDIIPSNGATFYNQKFKGRVTITVDKSTSTAYMELSSLRSEDTAVYYCARSHLLRASWFAYWGQGTLVTVSSGGCGGGEVAALEKEVAALEKEVAALEKEVAALEK
chain 2: DFVMTQSPDSLAVSLGERVTMSCKSSQSLLNSGNQKNYLTWYQQKPGQPPKLLIYWASTRESGVPDRFSGSGSGTDFTLTISSLQAEDVAVYYCQNDYSYPYTFGQGTKLEIKGGGSGGGGEVQLVESGGGLVQPGGSLRLSCAASGFTFSTYAMNWVRQAPGKGLEWVGRIRSKYNNYATYYADSVKDRFTISRDDSKNSLYLQMNSLKTEDTAVYYCVRHGNFGNSYVSWFAYWGQGTLVTVSSGGCGGGKVAALKEKVAALKEKVAALKEKVAALKE
On to B1, for which, in experiment [1], the “EC50 of redirected killing, Kasumi-3 target cells, E:T = 10:1” value was 0.01 ng/mL; the “EC50 of redirected killing, Molm13 target cells, E:T = 10:1” value came to 0.18 ng/mL; the “EC50 of redirected killing, RS4-11 target cells, E:T = 10:1” value came out at 0.5 ng/mL; the “EC50 of redirected killing, TF-1 target cells, E:T = 10:1” value was found to be 0.46 ng/mL. Also, the “EC50 of redirected killing, THP-1 target cells, E:T = 10:1” value in experiment [1] was determined as 0.24 ng/mL. Besides, in experiment [2], the equilibrium dissociation constant (Kd) was 9.2 nM, the off-rate constant (koff) turned out to be 0.005 s⁻¹ and the on-rate (kon) stood at 550000 M⁻¹ s⁻¹. In the experiment with Human CD3ε/δ (human), this molecule registered a Kd of 9 nM, an off-rate constant (koff) of 0.005 s⁻¹ and an on-rate (kon) of 570000 M⁻¹ s⁻¹.
